Laboratory results taken from publication PMC1635305 (Nucleic Acids Research, 2006).
Read-outs that look alike come from different tables or passages of the source.

Experiments:
[1] = target: the molecule itself; experiment: negative-stain electron microscopy single-particle reconstruction
[2] = target: the molecule itself; experiment: as above; remark: listed apart in the source

B1: Methanothermobacter thermautotrophicus MCM (natural protein, UniProt O27798 1-666, looked up)
chain: MMKTVDKSKTLTKFEEFFSLQDYKDRVFEAIEKYPNVRSIEVDYLDLEMFDPDLADLLIEKPDDVIRAAQQAIRNIDRLRKNVDLNIRFSGISNVIPLRELRSKFIGKFVAVDGIVRKTDEIRPRIVKAVFECRGCMRHHAVTQSTNMITEPSLCSECGGRSFRLLQDESEFLDTQTLKLQEPLENLSGGEQPRQITVVLEDDLVDTLTPGDIVRVTGTLRTVRDERTKRFKNFIYGNYTEFLEQEFEELQISEEDEEKIKELAGDPNIYEKIIRSTAPSIHGYREVKEAIALQLFGGTGKELDDKTRLRGDIHILIVGDPGIGKSQMLKYVSKLAPRGIYTSGKGTSGVGLTAAAVRDEFGGWSLEAGALVLGDKGNVCVDELDKMREEDRSAIHEALEQQTISIAKAGIMATLNSRCSVLAAANPKFGRFDSYKSIAEQIDLPSTILSRFDLIFVVEDKPDEEKDRELARHILKTHKEDHMPFEIDPELLRKYIAYARKNVRPVLTDEAMQVLEDFYVSMRASAADEDSPVPITARQLEALVRLSEASAKIKLKEHVEAEDARKAIKLSQACLKQVGYDPETGKIDIDKVEGRTPKSERDKFRLLLELIKEYEDDYGGRAPTNILITEMMDRYNVSEEKVEELIRILKDKGAIFEPARGYLKIV
stoichiometry N [1]: 14
stoichiometry N [2]: 12
